Kd data for one substance are collected here from PMC10937380.

The assay concerns the target preformed E3mUU–UFC1–UFM1 complex (UniProt O94874). Kind of assay: ITC; MicroCal PEAQ-ITC, 25 °C, 25 mM HEPES pH 7.5, 200 mM NaCl, 0.44 mM TCEP; 13 injections (19 for UFBP1 UFIM–UFM1). For orientation: Isothermal titration calorimetry measures the heat released or taken up as one component is titrated into another.

In the case of “CDK5RAP3 (from UniProt Q96JB5 1-506) (natural protein)”, the Kd (usually the constant that tells how readily two partners part at equilibrium) amounted to 500 nM.
